In the Human Domainome abundance scans (Beltran et al. 2025):
± gives the uncertainty stated by the source.

B1: Tripartite motif-containing protein 44, residues 174 to 218; numbered along this chain, Q96DX7 (parent)
chain: VAKRKCPDHGLDLSTYCQEDRQLICVLCPVIGAHQGHQLSTLDEA

Variants of: B1
Assay: abundance fitness (aPCA) (normalised: wild type 0, dead -1); higher = more abundant; growth selection in yeast, the domain comes from the species named
Conditions: Homo sapiens

Q: For VAKRKCPDHGLDLSTYCQEDRQLICVLCPVILAHQGHQLSTLDEA [G32L], which abundance fitness is on record?
A: The abundance fitness was -0.775 ± 0.042.

Q: For VAKRKCPDHGLDLSTYCQEDRQLICVLCPVIMAHQGHQLSTLDEA [G32M], which abundance fitness is on record?
A: Its abundance fitness is -0.663 ± 0.053.

Q: For VAKRKCPDHGLDLSTYCQEDRQLICVLCPVINAHQGHQLSTLDEA [G32N], which abundance fitness is on record?
A: Its abundance fitness is -0.465 ± 0.055.

Q: Which abundance fitness does the source give for VAKRKCPDHGLDLSTYCQEDRQLICVLCPVIPAHQGHQLSTLDEA [G32P] here?
A: Its abundance fitness is -0.22 ± 0.037.

Q: For VAKRKCPDHGLDLSTYCQEDRQLICVLCPVIQAHQGHQLSTLDEA [G32Q], which abundance fitness is on record?
A: The abundance fitness was -0.491 ± 0.046.

Q: Which abundance fitness does the source give for VAKRKCPDHGLDLSTYCQEDRQLICVLCPVIRAHQGHQLSTLDEA [G32R] here?
A: The abundance fitness was -0.492 ± 0.029.

Q: With VAKRKCPDHGLDLSTYCQEDRQLICVLCPVISAHQGHQLSTLDEA [G32S] as the variant, how does the abundance fitness read?
A: The abundance fitness was -0.393 ± 0.036.

Q: For VAKRKCPDHGLDLSTYCQEDRQLICVLCPVIVAHQGHQLSTLDEA [G32V], which abundance fitness is on record?
A: Its abundance fitness is -0.674 ± 0.033.

Q: With VAKRKCPDHGLDLSTYCQEDRQLICVLCPVIWAHQGHQLSTLDEA [G32W] as the variant, how does the abundance fitness read?
A: Its abundance fitness is -0.778 ± 0.038.

Q: Which abundance fitness does the source give for VAKRKCPDHGLDLSTYCQEDRQLICVLCPVIYAHQGHQLSTLDEA [G32Y] here?
A: Its abundance fitness is -0.743 ± 0.1.

Q: With VAKRKCPDHGLDLSTYCQEDRQLICVLCPVIGCHQGHQLSTLDEA [A33C] as the variant, how does the abundance fitness read?
A: The abundance fitness was -0.048 ± 0.035.

Q: Which abundance fitness does the source give for VAKRKCPDHGLDLSTYCQEDRQLICVLCPVIGDHQGHQLSTLDEA [A33D] here?
A: The abundance fitness was -0.068 ± 0.032.

Q: With VAKRKCPDHGLDLSTYCQEDRQLICVLCPVIGEHQGHQLSTLDEA [A33E] as the variant, how does the abundance fitness read?
A: Its abundance fitness is -0.032 ± 0.031.

Q: For VAKRKCPDHGLDLSTYCQEDRQLICVLCPVIGHHQGHQLSTLDEA [A33H], which abundance fitness is on record?
A: Its abundance fitness is -0.031 ± 0.039.

Q: With VAKRKCPDHGLDLSTYCQEDRQLICVLCPVIGIHQGHQLSTLDEA [A33I] as the variant, how does the abundance fitness read?
A: The abundance fitness was -0.031 ± 0.045.

Q: Which abundance fitness does the source give for VAKRKCPDHGLDLSTYCQEDRQLICVLCPVIGKHQGHQLSTLDEA [A33K] here?
A: The abundance fitness was -0.006 ± 0.032.

Q: For VAKRKCPDHGLDLSTYCQEDRQLICVLCPVIGLHQGHQLSTLDEA [A33L], which abundance fitness is on record?
A: The abundance fitness was -0.079 ± 0.027.

Q: Which abundance fitness does the source give for VAKRKCPDHGLDLSTYCQEDRQLICVLCPVIGNHQGHQLSTLDEA [A33N] here?
A: Its abundance fitness is -0.014 ± 0.042.

Q: With VAKRKCPDHGLDLSTYCQEDRQLICVLCPVIGSHQGHQLSTLDEA [A33S] as the variant, how does the abundance fitness read?
A: Its abundance fitness is 0.019 ± 0.029.

Q: Which abundance fitness does the source give for VAKRKCPDHGLDLSTYCQEDRQLICVLCPVIGVHQGHQLSTLDEA [A33V] here?
A: Its abundance fitness is -0.05 ± 0.028.

Q: For VAKRKCPDHGLDLSTYCQEDRQLICVLCPVIGWHQGHQLSTLDEA [A33W], which abundance fitness is on record?
A: The abundance fitness was -0.148 ± 0.032.

Q: For VAKRKCPDHGLDLSTYCQEDRQLICVLCPVIGYHQGHQLSTLDEA [A33Y], which abundance fitness is on record?
A: Its abundance fitness is -0.094 ± 0.046.

Q: For VAKRKCPDHGLDLSTYCQEDRQLICVLCPVIGAAQGHQLSTLDEA [H34A], which abundance fitness is on record?
A: The abundance fitness was -0.673 ± 0.035.

Q: For VAKRKCPDHGLDLSTYCQEDRQLICVLCPVIGACQGHQLSTLDEA [H34C], which abundance fitness is on record?
A: Its abundance fitness is -0.107 ± 0.035.

Q: Which abundance fitness does the source give for VAKRKCPDHGLDLSTYCQEDRQLICVLCPVIGADQGHQLSTLDEA [H34D] here?
A: The abundance fitness was -0.575 ± 0.045.

Q: Which abundance fitness does the source give for VAKRKCPDHGLDLSTYCQEDRQLICVLCPVIGAEQGHQLSTLDEA [H34E] here?
A: Its abundance fitness is -0.647 ± 0.075.

Q: Which abundance fitness does the source give for VAKRKCPDHGLDLSTYCQEDRQLICVLCPVIGAFQGHQLSTLDEA [H34F] here?
A: Its abundance fitness is -0.776 ± 0.063.

Q: With VAKRKCPDHGLDLSTYCQEDRQLICVLCPVIGAGQGHQLSTLDEA [H34G] as the variant, how does the abundance fitness read?
A: Its abundance fitness is -0.65 ± 0.029.

Q: Which abundance fitness does the source give for VAKRKCPDHGLDLSTYCQEDRQLICVLCPVIGAIQGHQLSTLDEA [H34I] here?
A: Its abundance fitness is -0.717 ± 0.067.

Q: With VAKRKCPDHGLDLSTYCQEDRQLICVLCPVIGAKQGHQLSTLDEA [H34K] as the variant, how does the abundance fitness read?
A: Its abundance fitness is -0.634 ± 0.057.

Q: With VAKRKCPDHGLDLSTYCQEDRQLICVLCPVIGALQGHQLSTLDEA [H34L] as the variant, how does the abundance fitness read?
A: Its abundance fitness is -0.925 ± 0.051.

Q: For VAKRKCPDHGLDLSTYCQEDRQLICVLCPVIGAPQGHQLSTLDEA [H34P], which abundance fitness is on record?
A: Its abundance fitness is -0.701 ± 0.046.

Q: Which abundance fitness does the source give for VAKRKCPDHGLDLSTYCQEDRQLICVLCPVIGAQQGHQLSTLDEA [H34Q] here?
A: The abundance fitness was -0.605 ± 0.043.

Q: With VAKRKCPDHGLDLSTYCQEDRQLICVLCPVIGARQGHQLSTLDEA [H34R] as the variant, how does the abundance fitness read?
A: Its abundance fitness is -0.653 ± 0.03.

Q: Which abundance fitness does the source give for VAKRKCPDHGLDLSTYCQEDRQLICVLCPVIGASQGHQLSTLDEA [H34S] here?
A: The abundance fitness was -0.689 ± 0.039.

Q: With VAKRKCPDHGLDLSTYCQEDRQLICVLCPVIGATQGHQLSTLDEA [H34T] as the variant, how does the abundance fitness read?
A: Its abundance fitness is -0.665 ± 0.042.

Q: Which abundance fitness does the source give for VAKRKCPDHGLDLSTYCQEDRQLICVLCPVIGAVQGHQLSTLDEA [H34V] here?
A: Its abundance fitness is -0.802 ± 0.037.

Q: For VAKRKCPDHGLDLSTYCQEDRQLICVLCPVIGAWQGHQLSTLDEA [H34W], which abundance fitness is on record?
A: Its abundance fitness is -0.895 ± 0.046.

Q: Which abundance fitness does the source give for VAKRKCPDHGLDLSTYCQEDRQLICVLCPVIGAYQGHQLSTLDEA [H34Y] here?
A: The abundance fitness was -0.665 ± 0.067.

Q: With VAKRKCPDHGLDLSTYCQEDRQLICVLCPVIGAHAGHQLSTLDEA [Q35A] as the variant, how does the abundance fitness read?
A: Its abundance fitness is -0.054 ± 0.027.

Q: Which abundance fitness does the source give for VAKRKCPDHGLDLSTYCQEDRQLICVLCPVIGAHCGHQLSTLDEA [Q35C] here?
A: Its abundance fitness is -0.089 ± 0.031.

Q: For VAKRKCPDHGLDLSTYCQEDRQLICVLCPVIGAHDGHQLSTLDEA [Q35D], which abundance fitness is on record?
A: The abundance fitness was -0.143 ± 0.035.

Q: For VAKRKCPDHGLDLSTYCQEDRQLICVLCPVIGAHEGHQLSTLDEA [Q35E], which abundance fitness is on record?
A: The abundance fitness was -0.021 ± 0.028.

Q: With VAKRKCPDHGLDLSTYCQEDRQLICVLCPVIGAHFGHQLSTLDEA [Q35F] as the variant, how does the abundance fitness read?
A: Its abundance fitness is -0.162 ± 0.048.

Q: With VAKRKCPDHGLDLSTYCQEDRQLICVLCPVIGAHGGHQLSTLDEA [Q35G] as the variant, how does the abundance fitness read?
A: The abundance fitness was -0.152 ± 0.025.

Q: Which abundance fitness does the source give for VAKRKCPDHGLDLSTYCQEDRQLICVLCPVIGAHHGHQLSTLDEA [Q35H] here?
A: The abundance fitness was 0.008 ± 0.036.

Q: For VAKRKCPDHGLDLSTYCQEDRQLICVLCPVIGAHIGHQLSTLDEA [Q35I], which abundance fitness is on record?
A: Its abundance fitness is -0.045 ± 0.036.

Q: With VAKRKCPDHGLDLSTYCQEDRQLICVLCPVIGAHKGHQLSTLDEA [Q35K] as the variant, how does the abundance fitness read?
A: The abundance fitness was 0.002 ± 0.037.

Q: Which abundance fitness does the source give for VAKRKCPDHGLDLSTYCQEDRQLICVLCPVIGAHLGHQLSTLDEA [Q35L] here?
A: Its abundance fitness is -0.105 ± 0.027.

Q: For VAKRKCPDHGLDLSTYCQEDRQLICVLCPVIGAHMGHQLSTLDEA [Q35M], which abundance fitness is on record?
A: Its abundance fitness is -0.031 ± 0.033.

Q: For VAKRKCPDHGLDLSTYCQEDRQLICVLCPVIGAHNGHQLSTLDEA [Q35N], which abundance fitness is on record?
A: Its abundance fitness is -0.092 ± 0.044.

Q: For VAKRKCPDHGLDLSTYCQEDRQLICVLCPVIGAHRGHQLSTLDEA [Q35R], which abundance fitness is on record?
A: The abundance fitness was -0.1 ± 0.026.

Q: For VAKRKCPDHGLDLSTYCQEDRQLICVLCPVIGAHSGHQLSTLDEA [Q35S], which abundance fitness is on record?
A: Its abundance fitness is -0.063 ± 0.027.

Q: Which abundance fitness does the source give for VAKRKCPDHGLDLSTYCQEDRQLICVLCPVIGAHTGHQLSTLDEA [Q35T] here?
A: The abundance fitness was -0.037 ± 0.029.

Q: Which abundance fitness does the source give for VAKRKCPDHGLDLSTYCQEDRQLICVLCPVIGAHVGHQLSTLDEA [Q35V] here?
A: The abundance fitness was -0.035 ± 0.027.

Q: Which abundance fitness does the source give for VAKRKCPDHGLDLSTYCQEDRQLICVLCPVIGAHWGHQLSTLDEA [Q35W] here?
A: Its abundance fitness is -0.186 ± 0.029.

Q: With VAKRKCPDHGLDLSTYCQEDRQLICVLCPVIGAHYGHQLSTLDEA [Q35Y] as the variant, how does the abundance fitness read?
A: Its abundance fitness is -0.067 ± 0.044.
